Data from US20220411483A1 (Chugai, published 2022).

B1: IL6R-P743/IL6R-L (antibody, human IgG1, kappa)
heavy: QVQLQESGPGLVKPSETLSLTCAVSGHSISHDHAWSWVRQPPGEGLEWIGFISYSGITNYNPSLQGRVTISRDNSKNTLYLQMNSLRAEDTAVYYCARSLARTTAMDYWGEGTLVTVSSASTKGPSVFPLAPSSKSTSGGTAALGCLVKDYFPEPVTVSWNSGALTSGVHTFPAVLQSSGLYSLSSVVTVPSSSLGTQTYICNVNHKPSNTKVDKKVEPKSCDKTHTCPPCPAPELLGGDSVFLFPPKPKDTLMISRTPEVTCVVVDVSHEDPEVKFNWYVDGVEVHNAKTKPREEQYNSTYRVVSVLTVLHQDWLNGKEYKCKVSNKGLPSSIEKTISKAKGQPREPQVYTLPPSRDELTKNQVSLTCLVKGFYPSDIAVEWESNGQPENNYKTTPPVLDSDGSFFLYSKLTVDKSRWQQGNVFSCSVMHEALHNHYTQKSLSLSP
light: not shown
B2: IL6R-P746/IL6R-L (antibody, human IgG1, kappa)
heavy: QVQLQESGPGLVKPSETLSLTCAVSGHSISHDHAWSWVRQPPGEGLEWIGFISYSGITNYNPSLQGRVTISRDNSKNTLYLQMNSLRAEDTAVYYCARSLARTTAMDYWGEGTLVTVSSASTKGPSVFPLAPSSKSTSGGTAALGCLVKDYFPEPVTVSWNSGALTSGVHTFPAVLQSSGLYSLSSVVTVPSSSLGTQTYICNVNHKPSNTKVDKKVEPKSCDKTHTCPPCPAPELFGQDSVMLFPPKPKDTLMISRTPEVTCVVVDVSHEDPEVKFNWYVDGVEVHNAKTKPREEQENSTYRVVSVLTVLHQDWLNGKEYKCAVSNKALPAPIEKTISKAKGQPREPQVYTLPPSRDELTKNQVSLTCLVKGFYPSDIAVEWESNGQPENNYKTTPPVLDSDGSFFLYSKLTVDKSRWQQGNVFSCSVMHEALHNHYTQKSLSLSP
light: not shown
B3: IL6R-P744/IL6R-L (antibody, human IgG1, kappa)
heavy: QVQLQESGPGLVKPSETLSLTCAVSGHSISHDHAWSWVRQPPGEGLEWIGFISYSGITNYNPSLQGRVTISRDNSKNTLYLQMNSLRAEDTAVYYCARSLARTTAMDYWGEGTLVTVSSASTKGPSVFPLAPSSKSTSGGTAALGCLVKDYFPEPVTVSWNSGALTSGVHTFPAVLQSSGLYSLSSVVTVPSSSLGTQTYICNVNHKPSNTKVDKKVEPKSCDKTHTCPPCPAPELLGGDSVFLFPPKPKDTLMISRTPEVTCVVVDVSHEDPEVKFNWYVDGVEVHNAKTKPREEQYNATYRVVSVLTVLHQDWLNGKEYKCAVSNKALPAPIEKTISKAKGQPREPQVYTLPPSRDELTKNQVSLTCLVKGFYPSDIAVEWESNGQPENNYKTTPPVLDSDGSFFLYSKLTVDKSRWQQGNVFSCSVMHEALHNHYTQKSLSLSP
light: not shown
B4: IL6R-P745/IL6R-L (antibody, human IgG1, kappa)
heavy: QVQLQESGPGLVKPSETLSLTCAVSGHSISHDHAWSWVRQPPGEGLEWIGFISYSGITNYNPSLQGRVTISRDNSKNTLYLQMNSLRAEDTAVYYCARSLARTTAMDYWGEGTLVTVSSASTKGPSVFPLAPSSKSTSGGTAALGCLVKDYFPEPVTVSWNSGALTSGVHTFPAVLQSSGLYSLSSVVTVPSSSLGTQTYICNVNHKPSNTKVDKKVEPKSCDKTHTCPPCPAPELLGGDSVFLFPPKPKDTLMISRTPEVTCVVVDVSHEDPEVKFNWYVDGVEVHNAKTKPREEQYNATYRVVSVLTVLHQDWLNGKEYKCEVSNKALPAPIEKTISKAKGQPREPQVYTLPPSRDELTKNQVSLTCLVKGFYPSDIAVEWESNGQPENNYKTTPPVLDSDGSFFLYSKLTVDKSRWQQGNVFSCSVMHEALHNHYTQKSLSLSP
light: not shown
B5: IL6R-P749/IL6R-L (antibody, human IgG1, kappa)
heavy: QVQLQESGPGLVKPSETLSLTCAVSGHSISHDHAWSWVRQPPGEGLEWIGFISYSGITNYNPSLQGRVTISRDNSKNTLYLQMNSLRAEDTAVYYCARSLARTTAMDYWGEGTLVTVSSASTKGPSVFPLAPSSKSTSGGTAALGCLVKDYFPEPVTVSWNSGALTSGVHTFPAVLQSSGLYSLSSVVTVPSSSLGTQTYICNVNHKPSNTKVDKKVEPKSCDKTHTCPPCPAPELLGQDSVMLFPPKPKDTLMISRTPEVTCVVVDVSPEDPEVKFNWYVDGVEVHNAKTKPREEQENSTYRVVSVLTVLHQDWLNGKEYKCEVSNKALPHPIEKTISKAKGQPREPQVYTLPPSRDELTKNQVSLTCLVKGFYPSDIAVEWESNGQPENNYKTTPPVLDSDGSFFLYSKLTVDKSRWQQGNVFSCSVMHEALHNHYTQKSLSLSP
light: not shown
B6: IL6R-P748/IL6R-L (antibody, human IgG1, kappa)
heavy: QVQLQESGPGLVKPSETLSLTCAVSGHSISHDHAWSWVRQPPGEGLEWIGFISYSGITNYNPSLQGRVTISRDNSKNTLYLQMNSLRAEDTAVYYCARSLARTTAMDYWGEGTLVTVSSASTKGPSVFPLAPSSKSTSGGTAALGCLVKDYFPEPVTVSWNSGALTSGVHTFPAVLQSSGLYSLSSVVTVPSSSLGTQTYICNVNHKPSNTKVDKKVEPKSCDKTHTCPPCPAPELLGQDSVMLFPPKPKDTLMISRTPEVTCVVVDVSPEDPEVKFNWYVDGVEVHNAKTKPREEQENSTYRVVSVLTVLHQDWLNGKEYKCAVSNKALPHPIEKTISKAKGQPREPQVYTLPPSRDELTKNQVSLTCLVKGFYPSDIAVEWESNGQPENNYKTTPPVLDSDGSFFLYSKLTVDKSRWQQGNVFSCSVMHEALHNHYTQKSLSLSP
light: not shown
B7: IL6R-P750/IL6R-L (antibody, human IgG1, kappa)
heavy: QVQLQESGPGLVKPSETLSLTCAVSGHSISHDHAWSWVRQPPGEGLEWIGFISYSGITNYNPSLQGRVTISRDNSKNTLYLQMNSLRAEDTAVYYCARSLARTTAMDYWGEGTLVTVSSASTKGPSVFPLAPSSKSTSGGTAALGCLVKDYFPEPVTVSWNSGALTSGVHTFPAVLQSSGLYSLSSVVTVPSSSLGTQTYICNVNHKPSNTKVDKKVEPKSCDKTHTCPPCPAPELFGQDSVMLFPPKPKDTLMISRTPEVTCVVVDVSPEDPEVKFNWYVDGVEVHNAKTKPREEQENSTYRVVSVLTVLHQDWLNGKEYKCAVSNKALPAPIEKTISKAKGQPREPQVYTLPPSRDELTKNQVSLTCLVKGFYPSDIAVEWESNGQPENNYKTTPPVLDSDGSFFLYSKLTVDKSRWQQGNVFSCSVMHEALHNHYTQKSLSLSP
light: not shown
B8: IL6R-P747/IL6R-L (antibody, human IgG1, kappa)
heavy: QVQLQESGPGLVKPSETLSLTCAVSGHSISHDHAWSWVRQPPGEGLEWIGFISYSGITNYNPSLQGRVTISRDNSKNTLYLQMNSLRAEDTAVYYCARSLARTTAMDYWGEGTLVTVSSASTKGPSVFPLAPSSKSTSGGTAALGCLVKDYFPEPVTVSWNSGALTSGVHTFPAVLQSSGLYSLSSVVTVPSSSLGTQTYICNVNHKPSNTKVDKKVEPKSCDKTHTCPPCPAPELFGQDSVMLFPPKPKDTLMISRTPEVTCVVVDVSHEDPEVKFNWYVDGVEVHNAKTKPREEQENSTYRVVSVLTVLHQDWLNGKEYKCEVSNKALPAPIEKTISKAKGQPREPQVYTLPPSRDELTKNQVSLTCLVKGFYPSDIAVEWESNGQPENNYKTTPPVLDSDGSFFLYSKLTVDKSRWQQGNVFSCSVMHEALHNHYTQKSLSLSP
light: not shown

Experiments:
[1] = molecular target: T1, FcgRIIaR (human, UniProt P12318 34-217); assay: SPR, amount bound per captured antibody
T1 construct: extracellular domain; also called FcγRIIa R type; FcγRIIa (R type)
T1 sequence (looked up): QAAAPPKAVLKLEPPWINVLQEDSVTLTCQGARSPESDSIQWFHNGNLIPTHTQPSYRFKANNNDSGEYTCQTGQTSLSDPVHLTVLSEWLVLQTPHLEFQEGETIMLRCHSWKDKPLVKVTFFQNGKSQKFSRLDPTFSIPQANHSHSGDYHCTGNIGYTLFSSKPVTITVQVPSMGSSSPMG

[2] = molecular target: T2, FcgRIIb (human, UniProt P31994 43-217); assay: SPR, amount bound per captured antibody
T2 construct: extracellular domain; also called FcγRIIb
T2 sequence (looked up): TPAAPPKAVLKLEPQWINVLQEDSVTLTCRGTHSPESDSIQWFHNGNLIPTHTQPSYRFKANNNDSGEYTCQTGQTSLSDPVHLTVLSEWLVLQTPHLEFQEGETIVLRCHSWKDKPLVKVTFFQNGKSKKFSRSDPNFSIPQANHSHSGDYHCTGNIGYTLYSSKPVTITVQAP

[3] = molecular target: T3, human complement C1q (human, UniProt P02745 23-245; P02746 28-253; P02747 29-245); assay: SPR, C1q bound per antibody captured on Protein L
T3 construct: Bought (PROSPEC or Calbiochem); also called human C1q
Experimental: The interaction between an antibody and human C1q was analyzed using Biacore T200 (GE Healthcare). HBS-EP+ (GE Healthcare) was used as the running buffer, and the measurement temperature was set at 25° C. Chips produced by immobilizing Protein L (ACTIGEN or BioVision) onto Series S sensor Chip CM4 (GE Healthcare) by amine coupling were used.
The antibodies of interest were captured onto these sensor chips, and allowed to interact with human complement C1q (PROSPEC or Calbiochem) diluted in the running buffer. The amount of antibody binding was determined, and comparisons were made among the antibodies. However, since the amount of C1q bound depends on the amount of captured antibodies, corrected values obtained by dividing the amount of C1q bound by the amount of each antibody captured were compared. Furthermore, by reaction with 10 mM glycine-HCl, pH 1.5, the antibodies captured onto the sensor chips were washed, and the sensor chips were recycled and reused.

T3 sequence (P02745 23-245 limits assumed, chain 1 of 3): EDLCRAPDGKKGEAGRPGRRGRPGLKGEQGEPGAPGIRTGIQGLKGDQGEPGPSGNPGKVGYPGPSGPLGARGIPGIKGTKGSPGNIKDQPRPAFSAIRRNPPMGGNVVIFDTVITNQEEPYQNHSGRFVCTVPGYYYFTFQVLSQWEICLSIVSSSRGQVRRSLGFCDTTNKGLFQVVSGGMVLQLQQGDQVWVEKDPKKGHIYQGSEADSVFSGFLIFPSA
T3 sequence (P02746 28-253 limits assumed, chain 2 of 3): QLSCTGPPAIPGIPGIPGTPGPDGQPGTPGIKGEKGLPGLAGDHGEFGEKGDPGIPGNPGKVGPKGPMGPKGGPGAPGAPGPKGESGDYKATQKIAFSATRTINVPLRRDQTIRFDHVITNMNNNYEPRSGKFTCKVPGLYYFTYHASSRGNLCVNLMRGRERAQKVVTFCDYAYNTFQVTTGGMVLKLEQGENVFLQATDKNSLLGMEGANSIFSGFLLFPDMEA
T3 sequence (P02747 29-245 limits assumed, chain 3 of 3): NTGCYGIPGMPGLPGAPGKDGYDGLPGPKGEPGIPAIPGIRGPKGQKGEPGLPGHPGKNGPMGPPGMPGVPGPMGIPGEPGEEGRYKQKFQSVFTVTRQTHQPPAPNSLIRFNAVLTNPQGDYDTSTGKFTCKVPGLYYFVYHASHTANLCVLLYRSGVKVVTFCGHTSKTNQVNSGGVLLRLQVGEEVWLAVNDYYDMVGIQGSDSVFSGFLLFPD

Binder	Relative FcgRIIaR-binding Activity [1]	Relative FcgRIIb-binding Activity [2]	Amount of C1q-binding when that for G1d is Defined as 100 [3]
B1	13.5 IL6R-G1d/IL6R-L=100	69.4 IL6R-G1d/IL6R-L=100	20.9 G1d=100
B2	7 IL6R-G1d/IL6R-L=100	57.5 IL6R-G1d/IL6R-L=100	1.4 G1d=100
B3	11.1 IL6R-G1d/IL6R-L=100	81.4 IL6R-G1d/IL6R-L=100	13.6 G1d=100
B4	13.7 IL6R-G1d/IL6R-L=100	95.4 IL6R-G1d/IL6R-L=100	20.9 G1d=100
B5	6.8 IL6R-G1d/IL6R-L=100	73.9 IL6R-G1d/IL6R-L=100	13.8 G1d=100
B6	5.1 IL6R-G1d/IL6R-L=100	42.7 IL6R-G1d/IL6R-L=100	1.4 G1d=100
B7	6.1 IL6R-G1d/IL6R-L=100	48.1 IL6R-G1d/IL6R-L=100	1.2 G1d=100
B8	10 IL6R-G1d/IL6R-L=100	98.1 IL6R-G1d/IL6R-L=100	13.7 G1d=100
